Experiments:
N#CO = assay: purified protein; details: apparent Km; 0.05 to 3.0 mM potassium cyanate; bicarbonate-dependent
From the text: cyanase activity (ammonium release), Lineweaver-Burk on Tl-Cyn

[1] = target: cyanase from the thermophilic fungus Thermomyces lanuginosus (Tl-Cyn) (Thermomyces lanuginosus); assay: crystal structure; sitting-drop vapour diffusion at 20 °C, protein 13 mg/mL; reservoir 2% Tacsimate (pH 8.0), 0.1 M Tris (pH 8.5), 16% PEG 3,350; malonate and formate bound in the active sites; 2.2 Å

| stoichiometry N [1] | Substance | Km (N#CO) [µM] |
| --- | --- | --- |
| – | Tl-Cyn (Thermomyces lanuginosus) | 360 ± 40 |
| 10 | cyanase from the thermophilic fungus Thermomyces lanuginosus (Tl-Cyn) (enzyme) | – |

Source: paper PMC7801690, “Crystal structure of a thermophilic fungal cyanase and its implications on the catalytic mechanism for bioremediation” (Scientific Reports, 2021)
